Test results from US20200109197A1.

Target: recombinant anti-human CD3 antibody with TEV cleavage site in the upper hinge region of mouse IgG1 (mouse) [IgG part: P01868]
Assay: cell-based or functional assay

AcTEV™ Protease (from UniProt P04517 2038-2279) (enzyme)
kappa-positive faction of beads after one hour incubation with the protease, 37° C.: 7%
kappa-positive faction of beads after one hour incubation with the protease, room temperature: 19%
